Fewer inactive variants are shown than the library holds.
How the values were obtained:
[1] = test system: biotinyl-Phe-oxazolone; assay: self-aminoacylation, catalytic enhancement (BFO) (fold over background); higher = more active; k-Seq, kA / k0A0; sequences stand for … in GGGAAUGGAUCCACAUCUACGAAUUC…UUCACUGCAGACUUGACGAAGCUG
In short: (§1)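 Mutagenized RNA pools with a 21-nt variable region (0.43 μM) reacted with each biotinyl-aminoacyl-oxazolone at 2–1250 μM. Reactions ran in 50 μL HEPES/NaCl/KCl/MgCl2/CaCl2 buffer with 5% acetonitrile, pH 6.9–7.0, for 90 minutes at room temperature. Streptavidin-captured RNA was quantified by triplicate qPCR and Illumina sequencing, and per-sequence fraction reacted was fit to a pseudo-first-order model with 1000 bootstraps. Catalytic enhancement is median kA divided by the uncatalyzed rate, the low-activity peak of a bimodal Gaussian fit.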

[2] = test system: biotinyl-Ile-oxazolone; assay: self-aminoacylation, catalytic enhancement (BIO) (fold over background); higher = more active; k-Seq, kA / k0A0; sequences stand for … in GGGAAUGGAUCCACAUCUACGAAUUC…UUCACUGCAGACUUGACGAAGCUG
In short: as §1

[3] = test system: biotinyl-Met-oxazolone; assay: self-aminoacylation, catalytic enhancement (BMO) (fold over background); higher = more active; k-Seq, kA / k0A0; sequences stand for … in GGGAAUGGAUCCACAUCUACGAAUUC…UUCACUGCAGACUUGACGAAGCUG
In short: as §1

[4] = test system: biotinyl-Val-oxazolone; assay: self-aminoacylation, catalytic enhancement (BVO) (fold over background); higher = more active; k-Seq, kA / k0A0; sequences stand for … in GGGAAUGGAUCCACAUCUACGAAUUC…UUCACUGCAGACUUGACGAAGCUG
In short: as §1

[5] = test system: biotinyl-Leu-oxazolone; assay: self-aminoacylation, catalytic enhancement (BLO) (fold over background); higher = more active; k-Seq, kA / k0A0; sequences stand for … in GGGAAUGGAUCCACAUCUACGAAUUC…UUCACUGCAGACUUGACGAAGCUG
In short: as §1

[6] = test system: biotinyl-Trp-oxazolone; assay: self-aminoacylation, catalytic enhancement (BWO) (fold over background); higher = more active; k-Seq, kA / k0A0; sequences stand for … in GGGAAUGGAUCCACAUCUACGAAUUC…UUCACUGCAGACUUGACGAAGCUG
In short: as §1

Sequence	self-aminoacylation [1]	self-aminoacylation [2]	self-aminoacylation [3]	self-aminoacylation [4]	self-aminoacylation [5]	self-aminoacylation [6]
AAUCACCUAAGUCAUCGGGUG [Fam2.2 aminoacylation ribozyme variant]	44.5	4.89	6.3	4.44	7.68	7.91
AAUCACCUAGGUCAACGGGUG [Fam2.2 aminoacylation ribozyme variant]	10.3	2.29	2.91	2.77	3.39	3.32
AAUCACCUAGGUCAUCCGGUG [Fam2.2 aminoacylation ribozyme variant]	50	4.59	5.22	4.15	6.61	6.07
AAUCACCUAGGUCAUCGGCUG [Fam2.2 aminoacylation ribozyme variant]	10.9	2.3	3.21	2.34	2.14	2.68
AAUCACCUAGGUCAUCGGGUC [Fam2.2 aminoacylation ribozyme variant]	7.16	1.79	1.81	1.63	1.37	1.21
AAUCACCUAGGUCAUCUGGUG [Fam2.2 aminoacylation ribozyme variant]	11.2	1.96	2.08	1.67	2.27	2.52
AAUCACCUAGGUCGUCGGGUG [Fam2.2 aminoacylation ribozyme variant]	7.97	2.12	2.21	2.19	3.25	1.34
AAUCACCUGGGUCAUCGGGUG [Fam2.2 aminoacylation ribozyme variant]	31.9	4.12	4.32	6.36	4.47	7.63
AAUCACUUAGGUCAUCGGGUG [Fam2.2 aminoacylation ribozyme variant]	43	5.09	7.21	4.61	7.59	8.45
AAUGCCCUGGUCAUCGAGUGA [Fam2.1 aminoacylation ribozyme variant]	33.9	4.61	9.57	5.85	9.96	11.8
AAUUACCUAGGUCAUCGGGUG [Fam2.2 aminoacylation ribozyme variant]	38	4.3	6.04	4.24	6.53	7.49
AAUUAUGCUAAUAGUCGCAAG [Fam3.1 aminoacylation ribozyme variant]	3.25	2.21	1.46	1.65	1.81	2.57
AAUUUUGCUAAUAGUCGCAGG [Fam3.1 aminoacylation ribozyme variant]	2.65	1.89	1.76	1.83	1.98	2.05
AAUUUUGCUAAUAGUCGGAAG [Fam3.1 aminoacylation ribozyme variant]	3.1	1.23	1.13	1.03	1.22	1.2
ACACACCUAGGUCAUCGGGUG [Fam2.2 aminoacylation ribozyme variant]	19	2.98	3.51	3.19	3.61	4.91
ACACACGUCAAGCAAUCGGUC [Fam1B.1 aminoacylation ribozyme variant]	3.48	1.88	1.96	2.04	2.14	2.55
ACACACUGCAAGCAAUCGGUC [Fam1B.1 aminoacylation ribozyme variant]	1.36	1.43	1.23	1.33	1.48	1.73
ACACACUUAAAGCAAUCGGUC [Fam1B.1 aminoacylation ribozyme variant]	1.23	1.08	0.917	1.11	0.923	0.971
ACACACUUCAAACAAUCGGUC [Fam1B.1 aminoacylation ribozyme variant]	65.1	1.73	1.38	1.79	2.39	40.6
ACACACUUCAAGAAAUCGGUC [Fam1B.1 aminoacylation ribozyme variant]	5.64	1.24	1.41	1.27	1.32	4.86
ACACACUUCAAGCAAUCGCUC [Fam1B.1 aminoacylation ribozyme variant]	2.24	1.84	1.63	1.92	1.75	2.57
ACAUUUGCUAAUAGUCGCAAG [Fam3.1 aminoacylation ribozyme variant]	2.27	2.46	1.79	1.92	2.43	1.32
ACCCACUUCAAGCAAUCGGUC [Fam1B.1 aminoacylation ribozyme variant]	23.3	1.11	1.15	1.29	1.37	15.2
ACGCACCUAGGUCAUCGGGUG [Fam2.2 aminoacylation ribozyme variant]	29	3.42	4.23	3.55	3.1	4.93
ACGUUUGCUAAUACUCGCAAG [Fam3.1 aminoacylation ribozyme variant]	1.88	1.12	0.968	0.9	0.909	0.897
ACUAACCUGGUCAUCGAGUGA [Fam2.1 aminoacylation ribozyme variant]	2.68	3.19	4.84	2.91	3.83	5.42

Reference: the supplement of paper PMC9233669
